Target: the molecule itself
Test: SEC

| Protein | stoichiometry N |
| --- | --- |
| AdcR H42A/H108A (site 1 metal ligand mutant) (natural protein) MGTLEKKLDNLVNTILLKAENQHELLFGACQSDVKLTNTQEAILMLLSQQRLTNTDLAKALNISQAAVTKAIKSLVKQDMLAGTKDTVDARVTYFELTELAKPIASEATHHHDETLNVYNRLLQKFSAKELEIVDKFVTVFAEELEG | 2 |
| AdcR C30A (site 2 metal ligand mutant) (natural protein) MGTLEKKLDNLVNTILLKAENQHELLFGAAQSDVKLTNTQEHILMLLSQQRLTNTDLAKALNISQAAVTKAIKSLVKQDMLAGTKDTVDARVTYFELTELAKPIASEHTHHHDETLNVYNRLLQKFSAKELEIVDKFVTVFAEELEG | 2 |

Source: article PMC5514391 (EBioMedicine, 2017)
